{
  "source": "patent US6077666",
  "key": {"[1]": {"molecular_target": "somatostatin receptors in GH4 C1 cells", "assay": "radioligand filtration binding on crude GH4 C1 membranes, cells treated with antisense oligo for 24 hours"}, "[2]": {"molecular_target": "somatostatin receptors in GH4 C1 cells", "assay": "radioligand filtration binding on crude GH4 C1 membranes, vehicle-treated cells"}, "[3]": {"molecular_target": "somatostatin receptors in GH4 C1 cells", "assay": "radioligand filtration binding on crude GH4 C1 membranes, sense oligo treated cells"}, "[4]": {"molecular_target": "somatostatin receptors in GH4 C1 cells", "assay": "radioligand filtration binding on crude GH4 C1 membranes, antisense-treated against vehicle and sense-treated cells"}},
  "data": [
    {"substance": "[125I]tyr-somatostatin, S-14 (from UniProt P61278) (peptide)", "values": [
      {"measurement": "[125I]tyr-somatostatin binding, antisense oligo treated cells", "setting": "[1]", "result": 166, "unit": "fmol/mg"},
      {"measurement": "[125I]tyr-somatostatin binding (fmol/mg), vehicle-treated cells", "setting": "[2]", "result": 408, "unit": "fmol/mg"},
      {"measurement": "[125I]tyr-somatostatin binding (fmol/mg), sense oligo treated cells", "setting": "[3]", "result": 350, "unit": "fmol/mg"},
      {"measurement": "decline in [125I]tyr-somatostatin binding after antisense treatment", "setting": "[4]", "result": 60, "unit": "%"}
    ]}
  ]
}
